In patent US12227762B2, “Spheroid culture method for neural stem cell” (Daegu Gyeongbuk Institute of Science and Technology, priority 2019, dated 2025):

Key:
[1] = system: ORN differentiated from spheroid cultured progenitor cells; assay: Calcium imaging assay of ORNs under odorant stimulation; type: cell-based, rat; details: for total calcium concentration stimulated by odor: odorant mixture
Protocol: To facilitate comparison with in vivo ORNs, the physiological properties of ORNs were validated using calcium imaging assays. The activity of the spheroid-cultured ORN progenitor cells was evaluated by transferring them to the laminin-coated plates, and measuring the change in fluorescence intensity by stimulating ORN activity with a mixture of odorant. In addition, the total-calcium concentration and response rate stimulated by odor were analyzed based on the results of calcium imaging.
Specifically, before performing the calcium imaging assay, the coverslip substrate was combined with a magnetic chamber (Live Cell instrument, Seoul, Korea), and the medium was replaced with KREBS Ringer's buffer containing 115 mM NaCl, 5.9 mM KCl, 2.5 mM CaCl2·2H2O, 1.2 mM MgCl2, 1.2 mM NaH2PO4, 10 mM HEPES sodium salt, and 10 mM D-glucose, and it was washed with PBS. Then, the cells were stained with fluo3-AM (life technologies, Waltham, USA). Fluorescence images of calcium markers were monitored using a confocal microscope. To stimulate the ORN, three odorants of 100 µM isovaleric acid (IVA), 2-isobutyl-3-methoxypyrazine (IBMP), and citralva, which are reported to activate the major signaling pathways of the ORN, and 100 µM of their mixture were applied to the magnetic chamber using a tubing connected to a syringe. The intracellular calcium concentration was calculated from the background corrected fluorescence ratio at 506/526 nm using a two-point calibration scheme and the equation [Ca]i=Kd(F0/Fs)(R−Rmin)/(Rmax−R).
Response rates were calculated as a ratio of the number of activated cell populations to the total number of cell populations in the confocal microscopy software.
Next, to determine the physiological properties of ORNs under single […] stimulation, the changes in intracellular calcium levels of ORNs and the changes in fluorescence intensity in cells a, b and c according to […] stimulation were monitored using 100 μM IBMP, 100 μM IVA, and 100 μM citralva.

[2] = system: spheroid ORN progenitor cells; assay: qPCR of ORN developmental markers after differentiation of spheroid ORN progenitor cells on laminin-coated plate; type: cell-based, rat
Protocol: Spheroid ORN progenitor cells were differentiated and their developmental characteristics were monitored using qPCR and ICC.
Next, in order to analyze the differentiation of spheroid ORN progenitor cells in-depth, the transcriptional levels of ORN developmental markers such as ac3, omp, map2 and ncam, were analyzed by qPCR. Adenyl cyclase III (AC3), an important protein in the ORN, plays an important role in the olfactory signaling cascade. Olfactory marker protein (OMP) is also a protein found in fully matured ORNs. Microtubule associated protein 2 (MAP2) and NSE are expressed in differentiated neurons. Therefore, these markers were used as neuronal maturation markers. Neural cell adhesion molecule (NCAM) was used as a neural cell marker.

[3] = system: rat ORN progenitor cells; assay: Spheroid culture of ORN progenitor cells on REP-coated or laminin-coated plates (spheroid formation, diameter); type: cell-based
Protocol: For a comparison between the culture in a vessel coated with a recombinant protein (REP, TGPG[VGRGD(VGPVPG)6]20WPC) and culture in a vessel coated with laminin in whether neural stem cells are cultured into spheroids, the rat ORN progenitor cells primary cultured in Example 1-1 above were plated on REP-coated or laminin-coated cell culture plates.
Specifically, before plating the isolated ORN progenitor cells, 96-well plates (Thermo Scientific, Waltham, USA) were coated with 100 μl of 3 μM REP diluted with PBS, and they were cultured in the humidified 37° C. culture incubator containing 5% CO2 for 1 hour. The REP was prepared by the previously described method (Jeon W B, Park B H, Wei J, Park R W (2011) J Biomed Mater Res A 97 (2): 152-7). After culturing for 1 hour in the humidified incubator, the REP solution was aspirated, and 1×10^6 cells/ml of the isolated ORN progenitor cell suspension was placed and stored in the humidified incubator. MEM medium (Welgene, Gyeongsan, Republic of Korea) containing fresh 0.5% FBS (GE Healthcare lifesciences, Brussel, Belgium), 0.5% penicillin streptomycin (Thermo Fisher, Waltham, USA), kanamycin (SIGMA), and gentamicin (SIGMA) was replaced every 24 hours.
Next, in order to check the optimal conditions for spheroid formation, the diameter and shape of the spheroids were observed according to the seeding populations and the concentration of REP by measuring the diameter of the formed spheroids.

[4] = system: ORN differentiated from cryopreserved spheroid progenitor cells; assay: Cryopreservation, thawing and differentiation of spheroid ORN progenitor cells, calcium imaging; type: cell-based, rat; details: 5 day spheroids cryopreserved 35 days, thawed on laminin
From the text: Since the neural stem cells cultured into spheroids need to be stably preserved for a long period of time for efficient use, in order to determine whether or not the cell storage period is extended through cryopreservation, spheroid-cultured ORN progenitor cells were cryopreserved for 35 days and thawed to test their physiological properties.

[5] = Surface properties of coated coverslips by AFM and SEM; type: physicochemical
Protocol: In order to determine effects of the REP on spheroid formation, surface properties of REP-coated coverslips were observed using atomic force microscopy (AFM) and scanning electronic microscopy (SEM).
Specifically, for AFM and SEM image observation, glass coverslips were coated with 3 μM REP and 25 μg/ml laminin. To coat the coverslip with REP, 3 μM REP solution was poured onto the coverslip and incubated at 37° C. for 1 hour. Thereafter, the coverslip was washed three times with warmed autoclaved distilled water at 37° C. and dried in a hood. To prepare a laminin-coated coverslip, 25 μg/ml laminin was diluted with autoclaved distilled water and poured over the coverslip and the coverslip was stored at 37° C. overnight. Thereafter, the coverslip was washed three times with pressurized distilled water and dried with a critical point dryer (EM CPD 300; Leica, Wetzlar, Germany). AFM (XE-150; Park Systems, Suwon, Republic of Korea) was performed in non-contact mode with a scanning speed of 0.5 Hz. Before SEM observation, the coverslip was coated with osmium (Osmium plasma coater, Vacuum Devices Inc., Mito, Japan), and SEM was performed at a chamber pressure of […].

[6] = system: spheroid ORN progenitor cells; assay: Calcein assay of cell viability of spheroid ORN progenitor cells; type: cell-based, rat; details: plate coated with 3 μM REP
Protocol: Since it is essential for neural stem cells to maintain cell viability while cultured into spheroids, a calcein assay was performed to evaluate the viability of ORN progenitor cells cultured into spheroids according to the cultivation time.
Specifically, calcein assay reagent (calcein red-orange, AM; Invitrogen, Carlsbad, USA) is used to evaluate cell viability. Spheroid ORN progenitor cells were washed three times with Dulbecco's phosphate-buffered saline (DPBS; Gibco® by Life Technologies™, Waltham, USA), treated with 3 μM calcein-AM solution, and cultivated at 37° C. for 30 minutes. Cell viability in each well was quantified by measuring optical density at 517 nm with a fluorescence reader (Gemini EM; Molecular Devices, San Jose, USA). The total OD517mm value was normalized to the value measured in spheroid ORN progenitor cells on the first day, and the decrease in fluorescence intensity indicates decrease in viability according to environmental conditions and cell loss according to changes of culture media.

[7] = system: spheroid ORN progenitor cells; assay: qRT-PCR of stem cell markers in spheroid ORN progenitor cells; type: cell-based, rat; details: REP-coated plates
Protocol: In order to evaluate whether the spheroid-cultured ORN progenitor cells maintain a stemness, mRNA levels of stem cell markers were analyzed by quantitative real-time polymerase chain reaction (qRT-PCR). SOX2, Ki67, and nestin were used as specific marker genes for neural stem cells.
Specifically, total RNA was obtained from spheroid ORN progenitors using Trizol (Trizol® Reagent; Life technologies, Waltham, USA), and cDNA was synthesized by reverse transcription. qRT-PCR was performed under conditions of 40-45 repetitions at 95° C. for 30 sec, at 60° C. for 30 sec, and at 72° C. for 30 sec using a SYBR Green PCR Master Mix Kit (QuantiTect® SYBR® Green PCR Kit; QIAGEN, Hilden, Germany) on a Rotor-Gene Q (QIAGEN, Hilden, Germany). Primers of the sequences shown in Table 1 were purchased from GenoTeck (Daejeon, Korea) and Bionics (Daejeon, Korea). The housekeeping gene cyclophilin A was used as an internal standard.

[8] = day 3 spheroids, differentiated 72 hours on laminin-coated plate

## COc1nccnc1CC(C)C [IBMP, 2-isobutyl-3-methoxypyrazine, reference compound]
[1]; single odorant, 100 μM
  activation of ORN cell a (intracellular calcium fluorescence): activated

## CC(C)CC(=O)O [IVA, isovaleric acid, reference compound]
[1]; single odorant, 100 μM
  activation of ORN cell a (intracellular calcium fluorescence): activated
  activation of ORN cell b (intracellular calcium fluorescence): activated
  activation of ORN cell c (intracellular calcium fluorescence): activated

## CC(C)=CCCC(C)=CC#N [citralva, reference compound]
[1]; single odorant, 100 μM
  activation of ORN cell a (intracellular calcium fluorescence): activated
  activation of ORN cell c (intracellular calcium fluorescence): activated

## laminin [reference compound]
[2]; laminin group, days 3, 5 and 10
  expression level of nsetin: about 0.1 fold
[3]; plate coated with laminin
  culture outcome on coated plate: neurites outgrowth occurred and the cells were differentiated without spheroid culture

B1: TGPG[VGRGD(VGVPG)6]20WPC (protein)
chain: TGPGVGRGDVGVPGVGVPGVGVPGVGVPGVGVPGVGVPGVGRGDVGVPGVGVPGVGVPGVGVPGVGVPGVGVPGVGRGDVGVPGVGVPGVGVPGVGVPGVGVPGVGVPGVGRGDVGVPGVGVPGVGVPGVGVPGVGVPGVGVPGVGRGDVGVPGVGVPGVGVPGVGVPGVGVPGVGVPGVGRGDVGVPGVGVPGVGVPGVGVPGVGVPGVGVPGVGRGDVGVPGVGVPGVGVPGVGVPGVGVPGVGVPGVGRGDVGVPGVGVPGVGVPGVGVPGVGVPGVGVPGVGRGDVGVPGVGVPGVGVPGVGVPGVGVPGVGVPGVGRGDVGVPGVGVPGVGVPGVGVPGVGVPGVGVPGVGRGDVGVPGVGVPGVGVPGVGVPGVGVPGVGVPGVGRGDVGVPGVGVPGVGVPGVGVPGVGVPGVGVPGVGRGDVGVPGVGVPGVGVPGVGVPGVGVPGVGVPGVGRGDVGVPGVGVPGVGVPGVGVPGVGVPGVGVPGVGRGDVGVPGVGVPGVGVPGVGVPGVGVPGVGVPGVGRGDVGVPGVGVPGVGVPGVGVPGVGVPGVGVPGVGRGDVGVPGVGVPGVGVPGVGVPGVGVPGVGVPGVGRGDVGVPGVGVPGVGVPGVGVPGVGVPGVGVPGVGRGDVGVPGVGVPGVGVPGVGVPGVGVPGVGVPGAAAVGRGDAVGVPGVGVPGVGVPGVGVPGVGVPGVGVPGAAWPC
modifications: TGPG[VGRGD(VGVPG)6]20WPC
notes: recombinant elastin-derived protein with VGVPG pentapeptide and RGD integrin receptor ligand, used as culture vessel coating
[4]
  response rate stimulated by odor, compared to day 5: 72.3%
  total-calcium concentration stimulated by odor, compared to day 5: 72.5%
[1]; ORNs spheroid cultured for 3 days
  total calcium concentration stimulated by odor: 195.7 ± 24.0 nM
[1]; ORNs spheroid cultured for 5 days
  total calcium concentration stimulated by odor: 205.3 ± 24.9 nM
[1]; ORNs spheroid cultured for 10 days
  total calcium concentration stimulated by odor: 205.4 ± 22.3 nM
[1]; cultivation time 3 days
  response rate (activated cells / total cells): 29.9±2.5%
[1]; cultivation time 5 days
  response rate (activated cells / total cells): 27.6±3.0%
[1]; cultivation time 10 days
  response rate (activated cells / total cells): 28.1±4.2%
[5]; 3 μM REP vs 25 μg/ml laminin
  height and roughness relative to laminin-coated surface: 23.8 times
[5]; coverslip coated with 3 μM REP
  roughness (AFM): 148.3±15.9 nm
[2]; [8]
  expression level of ac3: 6.3±0.7 fold
  expression level of map2: 8.7±0.5 fold
  expression level of nse: 9.1±0.8 fold
  expression level of omp: 6.3±0.7 fold
[6]; 3rd day
  fluorescence intensity (cell viability) normalized to first day: 1.05±0.03 times
[6]; 10th day
  fluorescence intensity (cell viability) normalized to first day: 0.087±0.01 times
[7]; day 3
  normalized relative mRNA level of Ki67: 8.6±0.8 fold
  normalized relative mRNA level of SOX2: 8.4±0.8 fold
  normalized relative mRNA level of nestin: 11.7±1.1 fold
[7]; days 3, 5 and 10
  NSE expression: approximately 0.1 fold
[3]; 1 μM REP coating
  spheroid diameter: approximately 20 μm
  spheroid morphology: unstable spheroid morphology and cell aggregation
[3]; 1 μM REP coating, 24 hours after cell inoculation
  mean diameter of spheroids: 24.2±0.7 μm
[3]; 3 μM REP coating, 3rd day
  mean diameter of spheroids: 77.5±3.3 μm
[3]; 3 μM REP coating, 24 hours after cell inoculation
  mean diameter of spheroids: 62.6±2.2 μm
[3]; 5 μM REP coating, 5th day
  mean diameter of spheroids: 69.4±3.6 μm
[3]; 5 μM REP coating, 24 hours after cell inoculation
  mean diameter of spheroids: 56.2±2.8 μm
[3]; plate coated with REP
  time for ORN progenitor cells to aggregate to form spheroids: ≤ 24 h
